Two molecules from US20030194402A1 can be followed below.

The target of assay [1] is T1, human lymphotoxin (TNFβ) (human) (UniProt P01374).
T1 sequence (looked up): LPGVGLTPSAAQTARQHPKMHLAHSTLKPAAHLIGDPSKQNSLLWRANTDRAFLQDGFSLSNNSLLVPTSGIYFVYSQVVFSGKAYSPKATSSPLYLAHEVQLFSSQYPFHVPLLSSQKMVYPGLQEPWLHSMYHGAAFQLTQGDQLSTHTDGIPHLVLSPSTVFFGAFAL
In words: cell-based or functional assay.

Assay [2] concerns the target human tumor necrosis factor-α (TNFα) (human) (UniProt P01375). In words: cell-based or functional assay.

human tumor necrosis factor-α (TNFα) (human), sequence (P01375 77-233): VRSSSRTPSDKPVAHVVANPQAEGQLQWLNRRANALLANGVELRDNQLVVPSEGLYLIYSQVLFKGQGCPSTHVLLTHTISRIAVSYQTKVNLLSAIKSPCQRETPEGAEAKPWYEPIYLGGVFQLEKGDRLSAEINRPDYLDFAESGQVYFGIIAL

“p55-sf2 (p55 TNF receptor/IgG1 heavy chain single fusion with truncated light chain JCK) (from UniProt P19438 3-159) (Fc fusion)” came in with an amount needed for the same degree of TNFβ inhibition, against p75P-sf2 in assay [1] of 3 fold.

B1: chimeric mouse/human IgG1 anti-platelet mAb (7E3) (antibody, INN chains, looked up, V domains shown)
VH: EVQLQQSGTVLARPGASVKMSCEASGYTFTNYWMHWVKQRPGQGLEWIGAIYPGNSDTSYIQKFKGKAKLTAVTSTTSVYMELSSLTNEDSAVYYCTLYDGYYVFAYWGQGTLVTVSA
VL: EIVLTQSPVTLSVTPGDSVSLSCRASRDISNNLHWFQQTSHESPRLLIKYASQSMSGIPSRFSGSGSGTDFTLSINSVETEDFGMYFCQQTNSWPYTFGGGTKLEIK
modifications: IgG1
In assay [2], B1 returned an IL-6 in supernatant of FS-4 fibroblasts after 18 h; TNF 0.3 ng/ml, antibody 4 µg/ml of 1.6 ng/mL; an IL-6 in supernatant of FS-4 fibroblasts after 18 h; TNF 1.5 ng/ml, antibody 4 µg/ml of 1.96 ng/mL; an IL-6 in supernatant of FS-4 fibroblasts after 18 h; TNF 7.5 ng/ml, antibody 4 µg/ml of 2.16 ng/mL.
